Test: yeast display, Sf9 membrane polyspecificity reagent, FACS + sequencing; frameworks hold sequencing errors
Method in brief: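 Synthetic nanobody libraries on Saccharomyces cerevisiae BJ5465 were galactose-induced for 36–48 hours, stained 1 hour at 4 °C with 10% biotinylated, detergent-solubilized Sf9 membrane reagent and enriched on streptavidin microbeads. FACS then separated cells into low and high (top ~1%) gates by anti-HA (expression) and streptavidin (reagent binding) fluorescence. Genes were colony-PCR amplified, MiSeq 2 × 250 sequenced and CDR-length filtered. A clone's polyreactivity label is that of its gate of origin.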
With “QVQLVESGGGLVQAGGSLRLSCAASGSIFTRYAMGWYRQAPGKERELVAAISWIGTRTYYADSVKGRFTISRDNAKNTVYLQMNSLKPEDTAVYYCNAVSKVERYSYPHGRPFEYWGQGTQVTVSS” the “polyreactivity (PSR sort gate)” value was “high polyreactivity”.
For “QVQLVESGGGLVQAGGSLRLSCAASGSIFYSNVMGWYRQAPGKERELVARITVAGSTNYADSVKGRFTISRDNAKNTVYLQMNSLKPEDTAVYYCNARLVIYTYDYWGQGTQVTVSS”, the “polyreactivity (PSR sort gate)” value was “low polyreactivity”.
With “QVQLVESGGGLVQAGGSLRLSCAASGIIQVYNTMGWYRQAPGKERELVAAINYSGGSTNYADSVKGRFTISRDNAKNTVYFQMNSLKPEDTAVYYCNARYGGFNVPYLRYEHWGQGTQVTVSS” the “polyreactivity (PSR sort gate)” value was “low polyreactivity”.
In the case of “QVQLVESGGGLVQAGGSLRLSCAASGGIFSYYVMGWYRQAPGKEREFVASITQRGRTYYADSVKGRFTISRDNAKNTVYLQINSLKPEDTAVYYCAAGIYAFRRHREEYDYWGQGTQVTVSS”, the “polyreactivity (PSR sort gate)” value is reported as “high polyreactivity”.
For “QVQLVESGGGLVQAGGSLRLSCAASGITIYWYAMGWYRQAPGKERELVAAITRSVGSTYYADSVKGRFTISRDNAKNTVYLQMNSLKPEDTAVYYCAADFYYYGFDYWGQGTQVTVSS”, the “polyreactivity (PSR sort gate)” value was “low polyreactivity”.
With “QVQLVESGGGLVQAGGSLRLSCAASGRIFSGNAMGWYRQAPGKERELVAAISWSGGSTYYADSVKGRFTISRDNAKNSVYLQMNSLKPEDTAVSYCNAPGYRRYGSRMGYWGQGTQVTVSS” the “polyreactivity (PSR sort gate)” value was “high polyreactivity”.
In the case of “QVQLVESGGGLVQAGGSLRLSCAASGSTFTIYAIGWSRQAPGKERELVAGITRVGSTNYADSVKGRFTISRDNAKNTVYLQMNSLKPEDTAVYYCARRDLFQAGYEYWGQGTQVTVSS”, the “polyreactivity (PSR sort gate)” value is reported as “low polyreactivity”.
For “QVQLVESGGGLVQAGGSLRLSCAASGRIFSFYAMGWYRQAPGKERELVAAITYTDGSTYADSVKGRFTISRDNAKNTVYLQMNSLKPEDTAVYYCATRYRWTPYDYWGQGTQVTVSS”, the “polyreactivity (PSR sort gate)” value was “low polyreactivity”.
For “QVQLVESGGGLVQAGGSLRLSCAASGSPFYAYAMGWYRQAPGKERQLVAAITYRDGRTNYADSVKGRFTISRDNAKNTVYLQMNSMKPEDTEVYYCARITGFTVRRYDYWGQGTQVTVSS”, the “polyreactivity (PSR sort gate)” value was “high polyreactivity”.
With “QVQLVESGRGLVQAGVSLRLSCAASGRIFTNNAMGLYRQAPGKERELVAAINVSGGRTYYADSVKGRFTISRENAKNTVYLQMNSLKPEDTAVYYCNKVKETYMDYWGQGTQVTVSS” the “polyreactivity (PSR sort gate)” value was “high polyreactivity”.
With “QVQLVESGGGLVQAGGSLRLSCAASGSTFYYYGMGWYRQAPGKERELVASISWGGGSTYYADSVKGRFTISRDNAKNTVYLQMNILKPEDTAVYYCATRGSYLGGLYDYWGQGTQVTVSS” the “polyreactivity (PSR sort gate)” value was “high polyreactivity”.
In the case of “QVQLVESGGGLVQAGGSLRLSCAASGSTFVFNAMGWYRQAPGKERELVAAISIDGSTNYADSVKGRFTISRDNANNSVYLQMNSLKPEDTAVYYCNAKRYGFFYWQGDYWGQGTQVTVSS”, the “polyreactivity (PSR sort gate)” value is reported as “low polyreactivity”.
In the case of “QVQLVESGGGLVQAGGSLRLSCAASGSTFKYYAMGWYRQAPGKERELVATITWSGTSTNYADSVKGRFTISRDNAKHTVYLQMHSLKPEDTAVYYCAARSKRRNYDYWGQGTQVTVSS”, the “polyreactivity (PSR sort gate)” value is reported as “high polyreactivity”.
With “QVQLVESGGGLVQAGGSLRLSSAASGRILKYYAMGWYRQAPGKERELVAAIGSGGSTYYADSVKGRFTISRDNAKNTVYLQMNSLKPDDTAVYYCNAEDQWGGYGYDYWGQGTQLTVSS” the “polyreactivity (PSR sort gate)” value was “low polyreactivity”.
With “QVQLVESGGGLVQAGGSLRISCAASGYTFFNYAMGWSRQAPGKERELVAAITWSGGSRYYADSVKGRFTISRVNAKNTVYLQMNSLKPEDTAVYYCAADAITPRDPYVTEKLDYWGQGTQVTVSS” the “polyreactivity (PSR sort gate)” value was “low polyreactivity”.
For “QVHLVESGGGLVQAGGSLRLSCAASGSTFVYNTMGWYRQAHGKERELVASISSDGNTDYADSVKGRFTISRDNAKNTVYVQMNSLKPEDTAVYYCAARYYYDWRFVGYDYWGQGTQVTVSS”, the “polyreactivity (PSR sort gate)” value was “low polyreactivity”.
For “QVQLVETGGGLVQAGGSLRLSCAASGTLSSYAMGWYRPAPGTERELVAAISLSGGSTYADSVKGRFTISRDNAKNTVYLQMNSLKPEDTAVYYCAATSSFRYDYWGQGTQVTVSS”, the “polyreactivity (PSR sort gate)” value was “low polyreactivity”.
In the case of “QVQLVESGGGLVQAGGSLRLSCAASGSIFIGNAMGWYRQAPGKERELVAAITWSGGSTTYADSVKGRFTISRDNAKNTVYLQMNSLKPEDTAVYYCNASIYQRYDYWGQGTQVTVSS”, the “polyreactivity (PSR sort gate)” value is reported as “low polyreactivity”.
In the case of “QVQLVESGGGLVQAGGSLRLSCAASGNTFYPNAMGWYRKAPGKERELVAAISSSGGSTYYADSVKGRFTISRDNAKNTVYLQMNSLKPEDTAVYYRAAEFDYPWSGEYYYWGQGTQVTVSS”, the “polyreactivity (PSR sort gate)” value is reported as “high polyreactivity”.
For “QVQLVESGGGLVQAGGSLRLSCAASGFIFQYYAMGWYREAPGKERELVAAISKTGGSTYYADSVKGRFTISRDNAKNTVYLQMNSLKPEDTAVYYCAVARSAYYRGNHWGQGSQVTVSS”, the “polyreactivity (PSR sort gate)” value was “high polyreactivity”.
In the case of “QVQLVESGGGLVQAGGRLRLSCAASGRIFYNYAMGWYRQAPGKERELVAAISGSGGSTYYADSVKGRFTISRDNAKNTVYLQMNCLKPDDTAVYYCSTSGPQYYSRNFDYWGQGTQVTVSS”, the “polyreactivity (PSR sort gate)” value is reported as “low polyreactivity”.
In the case of “QVQLVESGGGLVQAGGSVRLSCAASGGTFKANAMGWYRQAPGKERELVAAISWSGGSTYYADSVKGRFTISRDNAKNSVYLQMNSLKPEDTAVYYCRYWKYRSYDYWGQGTQVTVSS”, the “polyreactivity (PSR sort gate)” value is reported as “high polyreactivity”.
With “QVQLVESGGGLVQAGGSLRLSCAASGRIFDRNAMGWYRQARGKARELVARIDPGDDTNYADSVKGRFTISRDNAKNKVYLQMNSLQPEDTAVYYCATDPDYVLYRTAYYEYDYWGQGTQVTVSS” the “polyreactivity (PSR sort gate)” value was “low polyreactivity”.
For “QVQLVESGGGLVQAGGSLRLSCAASGFIFHPYAMGWYRQAPGKERELVATITWSDDSTYYADSVKGRFTISRDNAKNTVYLQMNSLKPEDTAVYYCAARHKQHNRYDYWGQGTQVTVSS”, the “polyreactivity (PSR sort gate)” value was “low polyreactivity”.
With “QVQLQERGGGLVQAGGSLCLSCAASGTIFFDGDMGWYRQAPGKEREFVAAINPGGSAYYADSVKGRLPLAAITHTVYLQMNSLKPEDTAVYYCAAKLFDVYGYYYWGQGTHVTVSS” the “polyreactivity (PSR sort gate)” value was “low polyreactivity”.
With “QVQLQERGGGLVQAGGSLRLSCAASGIIYADGFMGLYRQAPGKELEFVANITGGGTSNYADSVKGGFTISRDNAKNTVYLQMNSLKPEDTAVYFCAVYFAWTIGFTYWGQGTQVTVSS” the “polyreactivity (PSR sort gate)” value was “high polyreactivity”.
In the case of “QVQLVESGGGLVQAGGSLRLSCAASGRIFGWYAMGWYRQAPGKERELVAAIRWSGGSTYADSVKGRFTISRDNAKNTVYLQMNSLKPEDTAVYYCAATYGSYRGVRYYWGQGTQVTVSS”, the “polyreactivity (PSR sort gate)” value is reported as “high polyreactivity”.
With “QVQLVESAGRLVKAGGSLRLSCDASGSIFKGNAMGWYRQEPGKERELVAAISRTGGSTYYADSVKGRFTISRDNAKNTVYLQMNSLKPEDTAVYYCAAYSASTYDSWGQGTQVTVSS” the “polyreactivity (PSR sort gate)” value was “high polyreactivity”.
For “QVQLVESGGGLVQAGGSLRLSCAASGFTFSYYGMGWNIQAPRKERELVPALTRSGTNTYYADSVKGRFTISRDNAKNTVYLQMKSLKPEDTAVFYCNADVAWSGYHDWYWSSEDYWGQGTQVTVSS”, the “polyreactivity (PSR sort gate)” value was “low polyreactivity”.
With “QVQLVESAGGLVQAAGSLRLSCDASGRIFWYNAMGWYRQEPGKERELVAAISSGGSTSYADSVKGRFTISRDNAKNTVYLQMNSLKPEDTAVYYCDKDDERKQGQYPPYDSWGQGTQVTVSS” the “polyreactivity (PSR sort gate)” value was “low polyreactivity”.
For “QVQLGESGGGLVQAGGSLRLICAASGFIVTTYVMGWYRQAPGKERELVAVISRSGGRTYYADSVKGRFTISRDNAKNTVYLQMNSLKPEDTAVYYCNVDIPVLSHIEYYYWGQGTQVTVSS”, the “polyreactivity (PSR sort gate)” value was “low polyreactivity”.
In the case of “QVQLVESGGGLVQAGGSLRLSCAASGTIFLWYAMGWYIQAPGKERELVASITRGGNTYYADSVKGRFTISRDNAKNTVYLQMISLKPEDTAVYYCAAVSRFWRVPYTYDYWGQGTHVTVSS”, the “polyreactivity (PSR sort gate)” value is reported as “low polyreactivity”.
With “QVQLVESGGGLVQAGGSLRLSCAASGLIFRVYTMGWYRQAPGKERELVSAITGRGGRTYYADSVKGRFTISRDNAKNTVYLQMNSLKPEDTAVYYCATGGRYQQAAYTGYNYWGQGTQVTVSS” the “polyreactivity (PSR sort gate)” value was “high polyreactivity”.
For “EVQLVESGGGLVQAGGSLRLSCAASGRTFIWNAMGWYRQAPGKERELVAAITRNGDSTYYADSVKGRFTISRDNAKNTVYLQMNSLKPEDTAVYYCAAYSRVFVYRTVGNYGWMNYWGQGTQVTVSS”, the “polyreactivity (PSR sort gate)” value was “high polyreactivity”.
In the case of “QVQLVESGGGLVQAGVSLRLSCHASGSIFYYNTMGWYRQSPGKERELVATISSDGGTNYADSVKGRFTISRDNAKYTVYLQMNSLKPEDTAVYYCAKDGSNRLALPAWDYNYWGQGTQVTVSS”, the “polyreactivity (PSR sort gate)” value is reported as “low polyreactivity”.
With “QVQLVESGGVLVQAGGSLRLSCAASGRSFDENSMGWYRQAPGKERELVAAITGGDSTNYADSVKGRFTISRDNAKNTVYLQMNSLKPEDTAVYYCAKDQERVTKGRFYLLEYYWGQGTQVTVSS” the “polyreactivity (PSR sort gate)” value was “low polyreactivity”.
For “QVQLVESGRGLVQAGGSLRVSCAASGNTYLYYGMGWYRHAPGKERELVAAITQSGGTTYYADSVKGRFTISRDNAKNTVYFQMNTLIPEDTAVYYFAATRYYYYWYVYDDRGDYWGQGTQVSVSS”, the “polyreactivity (PSR sort gate)” value was “low polyreactivity”.
In the case of “QVQLVESGGGLVQAGGSLRLSCAASGRTFGWYTKGWYRQAPGKERELVAAISRSGTSTYYADSVKGRFTISRDNAKNTVYLQMNSLKPEDTAVYYCAAGPWAYGRRHSYYSYGYWGQVTQVTVSS”, the “polyreactivity (PSR sort gate)” value is reported as “high polyreactivity”.
With “QVQLVYSGGGLVQAGGSLSLSCAASGSTIDGYAMGWYRQAPGKERELVAAISSSGASTYYADSVKGRFTISRDNAKNTVYLQMNSLKPEDTAVYYCNRVTCQQKNDYWGQGTQVTVSS” the “polyreactivity (PSR sort gate)” value was “high polyreactivity”.
For “QVQLVESGGGLVPAGGSLRLSCAASGFTFNSNAMGWYRQAPGKERELVAAISGSGGRTYYADSVKGRFTISRDNAKNTVYLQRNSLKPEDTAVYYCAADYPVRSYDYWGQGTQVTVSS”, the “polyreactivity (PSR sort gate)” value was “low polyreactivity”.
For “QDQLVESGGGLVQAGGSLRISCAASGFTLKKYVMGWYRQAPGKERELVAAISSSGGSTYYADSVKGRFTISRDNAKNTVYLQMNSLKPEDTAVYYCAAVQSYAGFEYGYWGQGTQVTVSS”, the “polyreactivity (PSR sort gate)” value was “high polyreactivity”.
For “QVQLVESGGGLVQAGGSLRLSCAASGSIFFLYAMGWYRQAPGKERELVAAISCSGGRTYYADSVKGRFTISRDNAKNTDYIQMNSLKPEDTAVYYCAASYSGRQDRYPHYDYWGQGTQVTVSS”, the “polyreactivity (PSR sort gate)” value was “low polyreactivity”.
For “QVQLVESGGGLVQAGGSLRLSCAASGSILTGNAMGWYRQAPGKERELVAGITVGGTSTYYADSVKGRFTISRDNAKNTVYLQMNSLKPEDTAVYYCAAGYRSYWGVYDFDYWGQGTQVTVSS”, the “polyreactivity (PSR sort gate)” value was “low polyreactivity”.

Reference: the nanobody polyreactivity screen of Harvey et al. (2022)
